Numbering of substitutions follows the chain as printed. Names and notes keep the numbering of the source.

Assay [1] concerns COS-7 cells. The assay is described as follows: NO release (NO2−, chemiluminescence) from transfected COS cells. It is filed as cell-based. The conditions noted are these: for NO2− accumulation on co-transfection with eNOS: Akt construct co-transfected with eNOS, FIG. 1A; for Akt dependent NO release / activation of NOS construct: NOS construct co-transfected with Akt. An excerpt: Cell Transfections: The bovine eNOS, human iNOS, rat nNOS cDNAs in pcDNA3 and HA-tagged wild-type Akt, Akt (K179M) or myr-Akt in pCMV6 were generated by standard cloning methods. The myr-nNOS in pcDNA3 was generated by PCR, incorporating a new amino terminus containing the eNOS N-myristoylation consensus site (MGNLKSVG, SEQ ID NO:1) fused in frame to the second amino acid of the nNOS coding sequence. […] Mutation of the putative Akt phosphorylation sites in eNOS were generated using the Quick Change site-directed mutagenesis kit (Stratagene) according to the manufacturers instructions. All mutants were verified by DNA sequencing. COS-7 cells were plated (100 mm dish) and transfected with the NOS (7.5-30 mg) and Akt (1 mg) plasmids using calcium phosphate. To balance all transfections, the expression vector for β-galactosidase cDNA was used. Twenty-four to forty-eight hours after transfection, the expression of appropriate proteins (40-80 mg) were confirmed by Western blot analysis using eNOS mAb (9D10, Zymed), HA mAb (12CA5, Boehringer Mannheim), iNOS pAb (Zymed Laboratories) or nNOS mAb (Zymed Laboratories).
NO release from transfected COS cells: 24-48 hrs after transfection, media was processed for the measurement of nitrite (NO2^−), the stable breakdown product of NO in aqueous solution, by NO specific chemiluminescence as described (Sessa et al., 1995). Media was deproteinized and samples containing NO2^− were refluxed in glacial acetic acid containing sodium iodide. […] In all experiments, NO2^− release was inhibitable by a NOS inhibitor. In addition, NO2^−-release from cells transfected with the β-galactosidase cDNA was subtracted to control for background levels of NO2^− found in serum or media. In some experiments, cGMP accumulation in COS was used as a bioassay for the production of NO as described.

The target in assay [2] is T1, Akt (Homo sapiens, UniProt P31749).
T1 construct: host or cells: baculovirus-infected SF9 cells (Akt); peptides synthesized at the W. M. Keck Biotechnology Resource Center
T1 sequence (P31749 whole entry): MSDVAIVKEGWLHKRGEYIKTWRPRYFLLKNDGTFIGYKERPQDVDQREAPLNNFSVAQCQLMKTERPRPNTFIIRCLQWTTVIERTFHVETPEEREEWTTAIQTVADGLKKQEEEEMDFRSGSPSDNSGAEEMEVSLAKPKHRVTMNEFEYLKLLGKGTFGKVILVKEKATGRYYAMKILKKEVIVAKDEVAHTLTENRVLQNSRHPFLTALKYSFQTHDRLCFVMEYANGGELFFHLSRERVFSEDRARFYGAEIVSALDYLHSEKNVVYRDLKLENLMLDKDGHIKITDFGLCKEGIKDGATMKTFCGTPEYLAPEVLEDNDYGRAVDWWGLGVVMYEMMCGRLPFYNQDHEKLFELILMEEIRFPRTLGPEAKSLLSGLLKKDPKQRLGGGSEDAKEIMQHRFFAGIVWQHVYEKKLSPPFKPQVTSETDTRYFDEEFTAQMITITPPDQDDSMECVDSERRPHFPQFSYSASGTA
The assay is described as follows: In vitro phosphorylation of eNOS peptides (1174-1194) by recombinant Akt. The assay is classed as biochemical. Conditions: n=5. As to the method: In studies identifying the labeled eNOS peptide, immunoprecipitated Akt was incubated with recombinant eNOS as above. The sample was run on SDS-PAGE, and the eNOS band digested in gel, and the resultant tryptic fragments purified by RP-HPLC. Peptide mass and ^32P incorporation were monitored and the prominent labeled peak further analyzed by mass spectrometry. In other experiments, peptides corresponding to the potential Akt phosphorylation site were synthesized, purified by HPLC and verified by mass spectrometry (W. M. Keck Biotechnology Resource Center, Yale University School of Medicine). The wild-type peptide was 1174[…]1194 (SEQ ID NO:2) and the mutant peptide was identical except S1179 was changed to an alanine. In vitro kinase reactions were essentially as described above incubating peptides (25 mg) with recombinant Akt (1 mg). Reactions were then spotted onto phosphocellulose filters and the amount of phosphate incorporated measured by Cerenkov counting.

Assay [3] concerns Akt. The assay is described as follows: In vitro kinase reaction with Akt immunoprecipitated from COS cells. It is filed as biochemical. The conditions noted are these: immunoprecipitated kinase.
For assay [4], the system named is eNOS. The assay is described as follows: NOS activity (3H-L-arginine to 3H-L-citrulline) in COS cell lysates. The assay is classed as biochemical, bovine. The conditions noted are these: COS cells transfected with eNOS only, n=3. The text has this: NOS activity assays: The conversion of ^3H-L-arginine to ^3H-L-citrulline was used to determine NOS activity in COS cell or endothelial cell lysates as previously described by Garcia-Cardena et al. (1998).

The target in assay [5] is T1, Akt. In words: In vitro phosphorylation of purified eNOS by recombinant Akt. Conditions: FIG. 2D. The assay is classed as biochemical. How it is done:
In experiments examining the in vitro phosphorylation of wild-type and mutant eNOS, recombinant Akt (1 mg) purified from baculovirus infected SF9 cells, was incubated with wild-type or S1179A eNOS (2.4 mg, purified from E. coli) using essentially the same conditions as above. Proteins were resolved by SDS-PAGE and ^32P incorporation and the amount of protein determined by Coomassie staining as above.

The subject of assay [6] is Akt. The assay is described as follows: 32P phosphorylation of eNOS in intact transfected COS cells. It is filed as cell-based. Conditions: eNOS/Akt transfected COS cells; wortmannin 500 nM. How it is done: Phosphorylation studies in vivo and in vitro: For in vivo phosphorylation studies, COS cells were transfected with the cDNAs for wild-type or S635, 1179A eNOS and HA-Akt overnight. 36 hrs after transfection, cells were placed into dialyzed serum replete, phosphate-free Dulbecco's minimum essential medium supplemented with 80 μCi/ml of ^32P orthophosphoric acid for 3 hr. Some cells were pretreated with wortmannin (500 nM) in the phosphate-free media for 1 hr and during the labeling.

In the case of “wild-type Akt: HA-tagged wild-type Akt (protein kinase B) [reference compound]”, the “NO2− accumulation on co-transfection with eNOS” value in assay [1] was “markedly enhanced”.

Take “iNOS: human inducible NOS [reference compound]”: the “Akt dependent NO release / activation of NOS construct” value (from here on “Akt dependent NO release / activation”) in assay [1] is “did not result in a further increase in NO release”.

Consider “nNOS: rat neuronal NOS [reference compound]”, for which the “Akt dependent NO release / activation” value in assay [1] is “did not result in a further increase in NO release”.

For “1174RIRTQSFSLQERHLRGAVPWA1194 (listed as Bos sp.) [wild-type peptide]”, in assay [2], the “phosphate incorporated into peptide” value was determined as 24.6±3.7 nmol phosphate/mg.

With “kinase inactive Akt: kinase inactive Akt (K179M) [reference compound]”, the “NO2− accumulation on co-transfection with eNOS” value in assay [1] is recorded as “not”. Also, in assay [3], the “histone or eNOS phosphorylation by Akt variant” value is “did not significantly increase histone or eNOS phosphorylation”.

“myr-nNOS: nNOS with new amino terminus containing the eNOS N-myristoylation consensus site (MGNLKSVG)”: the “Akt dependent NO release / activation” value in assay [1] is given as “results in Akt stimulation of nNOS”.

B1: G2A eNOS: myristoylation, palmitoylation defective mutant of eNOS (protein)
chain: ANLKSVGQEPGPPCGLGLGLGLGLCGKQGPASPAPEPSRAPAPATPHAPDHSPAPNSPTLTRPPEGPKFPRVKNWELGSITYDTLCAQSQQDGPCTPRCCLGSLVLPRKLQTRPSPGPPPAEQLLSQARDFINQYYSSIKRSGSQAHEERLQEVEAEVASTGTYHLRESELVFGAKQAWRNAPRCVGRIQWGKLQVFDARDCSSAQEMFTYICNHIKYATNRGNLRSAITVFPQRAPGRGDFRIWNSQLVRYAGYRQQDGSVRGDPANVEITELCIQHGWTPGNGRFDVLPLLLQAPDEAPELFVLPPELVLEVPLEHPTLEWFAALGLRWYALPAVSNMLLEIGGLEFSAAPFSGWYMSTEIGTRNLCDPHRYNILEDVAVCMDLDTRTTSSLWKDKAAVEINLAVLHSFQLAKVTIVDHHAATVSFMKHLDNEQKARGGCPADWAWIVPPISGSLTPVFHQEMVNYILSPAFRYQPDPWKGSATKGAGITRKKTFKEVANAVKISASLMGTLMAKRVKATILYASETGRAQSYAQQLGRLFRKAFDPRVLCMDEYDVVSLEHEALVLVVTSTFGNGDPPENGESFAAALMEMSGPYNSSPRPEQHKSYKIRFNSVSCSDPLVSSWRRKRKESSNTDSAGALGTLRFCVFGLGSRAYPHFCAFARAVDTRLEELGGERLLQLGQGDELCGQEEAFRGWAKAAFQASCETFCVGEEAKAAAQDIFSPKRSWKRQRYRLSTQAEGLQLLPGLIHVHRRKMFQATVLSVENLQSSKSTRATILVRLDTAGQEGLQYQPGDHIGICPPNRPGLVEALLSRVEDPPPPTESVAVEQLEKGSPGGPPPSWVRDPRLPPCTLRQALTFFLDITSPPSPRLLRLLSTLAEEPSEQQELETLSQDPRRYEEWKWFRCPTLLEVLEQFPSVALPAPLLLTQLPLLQPRYYSVSSAPNAHPGEVHLTVAVLAYRTQDGLGPLHYGVCSTWLSQLKTGDPVPCFIRGAPSFRLPPDPYVPCILVGPGTGIAPFRGFWQERLHDIESKGLQPAPMTLVFGCRCSQLDHLYRDEVQDAQERGVFGRVLTAFSREPDSPKTYVQDILRTELAAEVHRVLCLERGHMFVCGDVTMATSVLQTVQRILATEGDMELDEAGDVIGVLRDQQRYHEDIFGLTLRTQEVTSRIRTQSFSLQERHLRGAVPWAFDPPGPDTPGP
B1: the “Akt dependent NO release / activation” value in assay [1] is listed as “did not activate”.

B2: S1179A: bovine eNOS with serine 1179 mutated to alanine (protein)
chain: B1 chain with A1G, S1178A
Consider B2, for which, in assay [4], the “NOS activity in lysates” value is 71.9±2.9 pmol L-citrulline generated/mg protein. For the same molecule, the “Akt-dependent phosphorylation compared to the wild-type protein” value in assay [5] was “markedly reduces”. Moreover, the “Akt dependent NO release / activation” value in assay [1] is given as “abolishes Akt dependent activation of eNOS”.

B3: S635, 1179A: double serine mutant of eNOS, serines 635 and 1179 mutated to alanine (protein)
chain: B1 chain with A1G, S634A, S1178A
B3: in assay [4], the “NOS activity in lysates” value is 80.8±23.2 pmol L-citrulline generated/mg protein. Further, in assay [6], the “Akt dependent phosphorylation of eNOS in intact cells” value is listed as “abolished Akt dependent phosphorylation of eNOS”. Also, the “Akt dependent NO release / activation” value in assay [1] is “abolishes Akt dependent NO release”.
